Assay results published in publication doi:10.1101/758714 (bioRxiv, 2019).

Tests used:
[1] = molecular target: CRY1 photolyase homology region (PHR), residues 1-491 (human) (UniProt Q16526); assay: fluorescence polarisation
[2] = molecular target: T1, CRY1 photolyase homology region (PHR), residues 1-491 (human, UniProt Q16526 1-491); assay: fluorescence polarisation
T1 sequence (looked up): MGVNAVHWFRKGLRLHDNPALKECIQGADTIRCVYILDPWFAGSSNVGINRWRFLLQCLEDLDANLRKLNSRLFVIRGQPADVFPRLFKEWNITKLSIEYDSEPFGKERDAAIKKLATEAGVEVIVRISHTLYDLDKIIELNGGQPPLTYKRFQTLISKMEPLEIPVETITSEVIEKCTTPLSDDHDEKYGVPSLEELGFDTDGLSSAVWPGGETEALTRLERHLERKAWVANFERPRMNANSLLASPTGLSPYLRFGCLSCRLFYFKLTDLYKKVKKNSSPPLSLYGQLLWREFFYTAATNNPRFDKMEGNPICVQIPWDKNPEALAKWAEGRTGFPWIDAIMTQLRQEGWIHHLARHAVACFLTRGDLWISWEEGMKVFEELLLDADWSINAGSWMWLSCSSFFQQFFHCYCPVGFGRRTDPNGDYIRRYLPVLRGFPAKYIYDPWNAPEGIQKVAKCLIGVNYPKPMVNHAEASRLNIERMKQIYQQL

Which fold lower affinity than the hCRY1 tail [1] does the source give for “Δ11 version of the human CRY1 tail (from UniProt Q16526 492-586) (domain or fragment)” here?
The fold lower affinity than the hCRY1 tail was 4 fold.

B1: human CRY1 tail (residues 492-586) (domain or fragment, UniProt Q16526 492-586, looked up)
chain: SRYRGLGLLASVPSNPNGNGGFMGYSAENIPGCSSSGSCSQGSGILHYAHGDSQQTHLLKQGRSSMGTGLSGGKRPSQEEDTQSIGPKVQRQSTN
modifications: fluorescein (FAM) on the N-terminus in the FP binding assays
With B1 as the molecule, how does the Kd [2] read?
The Kd was roughly 5 µM.
